Laboratory results from patent US20220306690A1 (CURATORS OF THE UNIVERSITY OF MISSOURI, published 2022).

Columns and labels:
[1] = biological target: T1, HIV-1 capsid protein (CA) hexamer (HIV-1, UniProt O12157 131-361, fluorescently labeled with Alexa Fluor 647 analog NT647 (site of labeling not stated)); assay: MicroScale Thermophoresis; Kd of Pep-2-cyclic (32 nM) against Kd of small molecule PF74 ([…] nM) on CA-hexamers
T1 construct: also called CA-hexamers

[2] = biological target: T1, HIV-1 capsid protein (CA) hexamer; assay: MicroScale Thermophoresis; 200 nM NT647-labeled CA-hexamers, Pep-2-cyclic titrated 1 nM to 2000 nM; fit to quadratic equation
[3] = biological target: T1, HIV-1 capsid protein (CA) hexamer; assay: MicroScale Thermophoresis (MST), 200 nM NT647-labelled CA-hexamers, Pep-2-cyclic titrated 1 nM to 2000 nM [B panel A]

B1: Pep-2-cyclic: Cyc(SGVFTFGPVNFPG) (peptide)
peptide: SGVFTFGPVNFPG
modifications: head-to-tail cyclic: cyclized by coupling the C-terminal carboxylic acid and the N-terminal amino group
fold greater affinity than PF74 [1]: ~7 fold | Kd [2]: 32 nM | EC50 (read off the curve) [3]: ~70 nM
